PMC5683418 (Molecular cell, 2017)

Molecular target: T1, highly purified Flag-HA-tagged NRF2 (human, UniProt Q16236 1-605)
T1 sequence (looked up): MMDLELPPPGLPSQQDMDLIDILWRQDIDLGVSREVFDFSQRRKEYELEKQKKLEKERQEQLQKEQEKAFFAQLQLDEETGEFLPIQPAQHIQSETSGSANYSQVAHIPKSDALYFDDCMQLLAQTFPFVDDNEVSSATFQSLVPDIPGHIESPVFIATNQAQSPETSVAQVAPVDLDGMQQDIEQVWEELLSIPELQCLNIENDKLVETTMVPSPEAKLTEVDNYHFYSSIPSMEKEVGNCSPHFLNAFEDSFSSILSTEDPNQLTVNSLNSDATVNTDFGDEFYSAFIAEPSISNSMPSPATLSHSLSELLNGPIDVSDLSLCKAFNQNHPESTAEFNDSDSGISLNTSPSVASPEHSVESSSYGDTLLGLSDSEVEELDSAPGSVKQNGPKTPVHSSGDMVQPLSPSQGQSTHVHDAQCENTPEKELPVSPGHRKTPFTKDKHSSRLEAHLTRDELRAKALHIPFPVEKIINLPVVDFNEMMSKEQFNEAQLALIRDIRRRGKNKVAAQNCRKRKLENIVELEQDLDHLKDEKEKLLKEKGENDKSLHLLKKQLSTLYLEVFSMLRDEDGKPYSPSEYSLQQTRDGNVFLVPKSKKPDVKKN
Assay: pull-down

B1: GST-ARF (1–64) (domain or fragment, UniProt Q8N726 1-64, looked up)
chain: MVRRFLVTLRIRRACGPPRVRVFVVHIPRLTGEWAAPGAPAAVALVLMLLRSQRLGQQPLPRRP
**Q.** Does B1 bind?
**A.** Result: binds
